Reference: publication PMC4754655 (Scientific Reports, 2016)
Substitutions are numbered along the chain they refer to.

B1: GEBT391, inferred germline (igL) reverted IgG (antibody, V domains shown)
VH: EVQLVESGGGLVQPGGSLRLSCAASGFTFSSYGMHWVRQAPGKGLEWVAVIWYDGSKKYYADSVKDRFTISRDNSKNMLYLQMNNLKLEDTAVYYCARRGCTGSGCYLYYYALDSWGQGVVVTVSS
VL: DIQMTQSPSSLSASVGDTVTITCRASQGISSYLNWFQQKPGKAPKLLIYAASSLESGVPSRFSGSGSGTEFTLTISSLQPEDFATYYCLQHNFYPYSFGQGTKVEIK
notes: also called igL GEBT391; gL-reverted GEBT391
B2: GEBT412, inferred germline (igL) reverted IgG (antibody, V domains shown)
VH: B1 VH with E1Q, A112G
VL: B1 VL
notes: also called igL GEBT412
B3: GEBT404, mature IgG (antibody, V domains shown)
VH: EVQLVESGGGLAKPGGSLRLSCAASGFTFSNYWMYWVRQAPGKGLEWISAINSAGSRTYYPDSVKGRFTISRENAKNTLYLQMDSLRAEDTAVYYCAKGRIAIFGLVITYFDYWGQGVLVTVSS
VL: DIQMTQSPSSLSASVGDRVTITCRASQGITNDLAWYQQKPGETPKLLIYDASSLQSGIPSRFSGSGSGTDFTLTISSLQPEDFATYYCQHYYSTPPTFGGGTKVEIK
B4: GEBT383, mature IgG (antibody, V domains shown)
VH: QVQLQESGPAVVKPSETLSLTCAVSGGSISSSNWWSWIRQSPGKGLEWIGGVYGSSGSTEYNPSLKSRVTISIDTSKNQFSLKLSSVTAADTAVYYCVRHCTWYNNIWNGYYNGFDYWGQGVLVTVSS
VL: QSALTQPPSVSGAPGQRVTISCTGSSSNIGGYYVSWYQQLPGTVPKLLIYENKKRPSGVSDRFSGSKSGTSASLTITGLQPGDEADYYCSAWDNSLSSHVFGSGTKLTVL
notes: also called non-CD4bs-directed mAb
B5: GEBT403, mature IgG (antibody, V domains shown)
VH: EVQLVQSGAEVKKPGSSVKVSCKASGYTFTDYYMHWVRQAPGQGLEWMGEINPKTGGTNYAQKFQGRVTMTRDTSTSTAYMELSSLRSEDTAIYSCARGGQRLIPLRRFYFYYWGQGVLVTVSS
VL: QSVLTQPPSVSGAPGQKVTISCTGSSSNIGGYDVHWYQQLPGMAPKLLIYDNNERPSGISDRFSGSKSGTSASLAITGLQTEDEADYYCQSYDSSMNAWVFGGGTRLTVL
notes: also called mature GEBT403
B6: GEBT391, mature IgG (antibody, V domains shown)
VH: B1 VH with E1Q, Y53F, K57E, A61V, E89D
VL: B1 VL with S52T, S53T, E55Q, E70D
B7: GEBT412, mature IgG (antibody, V domains shown)
VH: B1 VH with E1Q, S21A, T28I, S31N, Y32H, K57E, E89V, A112G
VL: B1 VL with Y32H, S52T, S53T, E55Q, E70D
B8: GEBT414, mature IgG (antibody, V domains shown)
VH: EVQLVQSGAEVKRPGESLRISCKTSGYSFTGSWISWVRQMPGKGLDWMGNIYPGDSDTRYNPSFQGHVTISADKSISTTYLQWSSLKASDTATYYCAKGGGITIFGLLHYPLDSWGQGVVVTVSS
VL: DIQMTQSPSSLSASVGDTVTITCRASQGINNWLAWYQQKPGKAPKLLIYKASSLQSGVPSRFSGSGSGTDFTLTISSLQSEDFATYYCQQYNSGPLTFGGGTKVEIK
B9: GEBT404, inferred germline (igL) reverted IgG (antibody, V domains shown)
VH: B3 VH with Y35H, R57S, P61A, S85G
VL: B3 VL with R24Q, D50E, P80S
notes: also called igL GEBT404; gL-reverted GEBT404

biological target: T1, YU2 gp120, soluble monomer (HIV-1 isolate YU2 (clade B), UniProt P35961); assay: BLI; details: both partners purified

Row | Binder | binding result
1 | B1 | binds
2 | B2 | binds

biological target: T2, YU2 gp140-foldon trimer (HIV-1 isolate YU2 (clade B), UniProt P35961, stabilised); assay: ELISA; Env glycoprotein coated at 2 ug/ml in PBS pH 7.4 overnight at 4 C; IgG 5-fold serially diluted, 1 hour at RT; HRP goat anti-human IgG (H+L); details: both partners purified
T2 construct: also called eliciting gp140-F immunogen; gp140 trimers; source: 293 F cells; not shown: His tag, C-terminal, kept

Row | Binder | binding result
3 | B3 | binds
4 | B4 | binds
5 | B5 | binds
6 | B6 | binds
7 | B7 | binds
8 | B1 | binds
9 | B8 | binds

biological target: T3, JRFL gp140-F trimer (HIV-1 isolate JRFL (clade B), UniProt Q75760, stabilised); assay: as above; details: both partners purified
T3 construct: also called JRFL foldon trimers; source: 293 F cells

Row | Binder | binding result
10 | B3 | binds
11 | B9 | binds
12 | B5 | binds
13 | B6 | binds
14 | B7 | binds
15 | B1 | binds
16 | B2 | binds
17 | B8 | binds

biological target: T1, YU2 gp120, soluble monomer; assay: as above; details: both partners purified

Row | Binder | binding result
18 | B3 | binds
19 | B5 | binds
20 | B6 | binds
21 | B7 | binds
22 | B8 | binds
